The values that follow come from patent publication US20230265192A1 (GIGAGEN, published 2023).

Experiment [1] addresses T1, His-tagged human CTLA-4 (CT4-H5229; Acro Biosystems) (human, UniProt P16410 36-161).
T1 construct: bought soluble protein; also called soluble human CTLA-4; recombinant human CTLA-4; not shown: His tag
The experiment in a line: SPR (Carterra). How it is done:
(§1) Then, goat anti-Human IgG Fc (Southern Biotech 2047-01) was coupled for 10 minutes at […] in 10 mM Sodim Acetate pH 4.5 (Carterra Inc.). The surface was then deactivated with 1 M ethanolamine pH 8.5 (Carterra Inc.). Running buffer used for the lawn immobilization was HBS-EPC (10 mM HEPES, 150 mM NaCl, 3 mM EDTA, 0.05% Tween 20, pH 7.4; Teknova).
(§2) The sensor chip was then transferred to a continuous flow microspotter (CFM; Carterra Inc.) for array capturing. The mAb supernatants were diluted 50-fold ([…] final concentration) into HBS-EPC with 1 mg/mL BSA. The samples were each captured twice with 15-minute and 4-minute capture steps on the first and second prints, respectively, to create multiple densities, using a […] flow rate. The running buffer in the CFM was also HBS-EPC.
(§3) Next, the sensor chip was loaded onto an SPR reader (MX-96 system; Ibis Technologies) for the kinetic analysis. CTLA-4 was injected at five increasing concentrations in a four-fold dilution series with concentrations of 1.95, 7.8, 31.25, 125, and 500 nM in running buffer (HBS-EPC with 1.0 mg/mL BSA). CTLA-4 injections were 5 minutes with a 15-minute dissociation at […] in a non-regenerative kinetic series. An injection of the goat anti-Human IgG Fc capture antibody at […] was injected at the end of the series to verify the capture level of each mAb. Binding data was double referenced by subtracting an interspot surface and a blank injection and analyzed for ka (on-rate), kd (off-rate), and KD (affinity) using the Kinetic Interaction Tool software (Carterra Inc.).

Experiment [2] deals with T1, His-tagged human CTLA-4 (CT4-H5229; …). Kind of experiment: SPR (Carterra), soluble human CTLA-4.
Experiment [3] concerns the target T2, His-tagged cynomolgus CTLA-4 (CT4-C5227; Acro Biosystems) (cynomolgus, UniProt G7PL88 36-161).
T2 construct: also called soluble cynomolgus CTLA-4; cyno CTLA-4
Kind of experiment: BLI (Octet), single antigen concentration. As to the method: (§4) Table 23. In vitro characterization of scFvs reformatted as full-length antibodies. kon, koff, and KD of the indicated CTLA-4 mAbs for soluble human CTLA-4 was determined by SPR (Carterra). Geometric MFI of the indicated CTLA-4 mAbs bound to CTLA-4⁺ or CD27⁺ CHO cells as detected by a secondary human IgG antibody and flow cytometry. Affinity (KD) of the indicated CTLA-4 mAbs for soluble cynomolgus CTLA-4 was determined by a single antigen concentration BLI measurement (Octet). […] Due to constraints on sample size in each Promega bioassay kit, this set of aCTLA-4 mAbs was analyzed using multiple plates (plate letters correspond to Plate A-D in FIG. 20D).
Antibodies were loaded at 5 μg/mL onto Protein A biosensors that were dipped into 80 nM antigen, and kinetic constants were calculated using a monovalent model.

In experiment [4] the target is mouse CTLA-4 (mouse, UniProt P09793 36-161, limits assumed). Kind of experiment: BLI (Octet). As to the method:
(§5) The binding specificity and affinity of each full-length antibody towards CTLA-4 were determined using biolayer interferometry (BLI) and/or surface plasmon resonance (SPR). Anti-cyno CTLA-4 and anti-mouse CTLA-4 affinities were tested using ForteBio (BLI). Anti-human CTLA-4 affinities were measured using Carterra (SPR).
(§6) For BLI, antibodies were loaded onto an Anti-Human IgG Fc (AHC) biosensor using the Octet Red96 system (ForteBio). Loaded biosensors were dipped into antigen dilutions beginning at 300 nM, with 6 serial dilutions at 1:3. Kinetic analysis was performed using a 1:1 binding model and global fitting.
On the technique in general: Biolayer interferometry detects binding as a change in optical thickness at a sensor tip.

For experiment [5], the target named is T2, His-tagged cynomolgus CTLA-4 …. The experiment in a line: BLI (Octet). As to the method: as §5, §6
Experiment [6] addresses T3, human CTLA-4 expressed on the cell surface (human, UniProt P16410 36-223).
T3 construct: CHO cells stably expressing human CTLA-4; also called hCTLA-4; CTLA-4+ CHO cells
The experiment in a line: flow cytometry, 10 µg/mL mAb, geometric MFI. How it is done: as §4
(§7) To determine if the CTLA-4 mAbs bound the appropriate antigen expressed on the surface of mammalian cells, CHO cell lines stably expressing human CTLA-4 or an irrelevant antigen (CD27) were generated. Cells (0.5×10⁶ each cell line) were combined and washed with MACS buffer (Dulbecco's Phosphate Buffered Saline [DPBS], with 0.5% bovine serum albumin [BSA], and 2 mM ethylenediaminetetraacetic acid [EDTA]). The cells were incubated with 10 μg/mL anti-CTLA-4 for 30 min at 4° C., then excess, unbound mAbs were removed by washing twice with MACS buffer. The cells were then stained with PE-conjugated anti-Human IgG Fc antibody (clone M1310G05, BioLegend 410720, San Diego, Calif., USA) to detect bound anti-CTLA-4 and with fluorescein isothiocyanate (FITC)-conjugated anti-CD27 (clone 0323, BioLegend 302806, San Diego, Calif., USA) to distinguish the cells expressing the irrelevant antigen. Cells were washed twice with MACS buffer, fixed with 4% paraformaldehyde fixation buffer (BioLegend 420801, San Diego, Calif., USA) for 20 minutes at room temperature and washed twice more with MACS buffer.
(In flow cytometry, cells or beads pass a laser one at a time.)

Experiment [7] has as its target T4, CD27 on CHO cells (UniProt P26842 20-260, limits assumed).
T4 construct: whole, on cells; also called CD27+ CHO cells; irrelevant antigen (CD27)
The experiment in a line: flow cytometry, 10 µg/mL mAb, geometric MFI. How it is done: as §4, §7

Experiment [8] addresses T1, His-tagged human CTLA-4 (CT4-H5229; …). Kind of experiment: SPR (Carterra). As to the method: as §1, §2, §3
The source holds these as a separate data set.

Experiment [9] addresses T3, human CTLA-4 expressed on the cell …. Kind of experiment: cell-based or functional assay.
In experiment [10] the target is T4, CD27 on CHO cells. Kind of experiment: flow cytometry, mixed CTLA-4+ and CD27+ CHO cells. As to the method:
To determine if the CTLA-4 mAbs bound the appropriate antigen expressed on the surface of mammalian cells, CHO cell lines stably expressing human CTLA-4 or an irrelevant antigen (CD27) were generated. Cells (0.5×10⁶ each cell line) were combined and washed with MACS buffer (Dulbecco's Phosphate Buffered Saline [DPBS], with 0.5% bovine serum albumin [BSA], and 2 mM ethylenediaminetetraacetic acid [EDTA]). The cells were incubated with 10 μg/mL anti-CTLA-4 for 30 min at 4° C., then excess, unbound mAbs were removed by washing twice with MACS buffer. The cells were then stained with PE-conjugated anti-Human IgG Fc antibody (clone M1310G05, BioLegend 410720, San Diego, Calif., USA) to detect bound anti-CTLA-4 and with fluorescein isothiocyanate (FITC)-conjugated anti-CD27 (clone 0323, BioLegend 302806, San Diego, Calif., USA) to distinguish the cells expressing the irrelevant antigen. Cells were washed twice with MACS buffer, fixed with 4% paraformaldehyde fixation buffer (BioLegend 420801, San Diego, Calif., USA) for 20 minutes at room temperature and washed twice more with MACS buffer. […] Binding of mAbs to CTLA-4 on the cell surface was determined using LSR II (BD Biosciences, San Jose, Calif., USA) or CytoFLEX LX (Beckman Coulter, Brea. Calif., USA) flow cytometers and analyzed using FlowJo (v10.6.1, BD Biosciences, San Jose, Calif., USA).

For experiment [11], the target named is T3, human CTLA-4 expressed on the cell …. The experiment in a line: cell-based or functional assay. The source holds these as a separate data set.

T2 sequence (G7PL88 entry or part of it limits assumed, form in doubt): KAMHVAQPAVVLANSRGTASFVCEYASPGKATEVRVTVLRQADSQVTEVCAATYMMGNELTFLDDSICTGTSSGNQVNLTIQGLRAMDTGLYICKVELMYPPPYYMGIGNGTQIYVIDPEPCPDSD
Sequence of mouse CTLA-4 (P09793 36-161 limits assumed): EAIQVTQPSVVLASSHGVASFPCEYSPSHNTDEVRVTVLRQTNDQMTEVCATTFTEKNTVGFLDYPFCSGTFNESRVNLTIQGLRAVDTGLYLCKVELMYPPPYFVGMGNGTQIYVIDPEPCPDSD
T4 sequence (P26842 20-260 limits assumed): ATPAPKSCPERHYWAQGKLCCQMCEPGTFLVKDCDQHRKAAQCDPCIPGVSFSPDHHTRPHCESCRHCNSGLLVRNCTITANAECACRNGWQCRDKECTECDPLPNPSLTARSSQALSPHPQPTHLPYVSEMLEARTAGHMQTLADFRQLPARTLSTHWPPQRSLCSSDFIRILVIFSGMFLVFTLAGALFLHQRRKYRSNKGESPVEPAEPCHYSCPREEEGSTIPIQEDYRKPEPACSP
T1 sequence (P16410 36-161 limits assumed): as the sequence (G7PL88 entry or part of it limits assumed, form in doubt) above, with N14S, T18I, M106L counted along it
T3 sequence (P16410 36-223 limits assumed): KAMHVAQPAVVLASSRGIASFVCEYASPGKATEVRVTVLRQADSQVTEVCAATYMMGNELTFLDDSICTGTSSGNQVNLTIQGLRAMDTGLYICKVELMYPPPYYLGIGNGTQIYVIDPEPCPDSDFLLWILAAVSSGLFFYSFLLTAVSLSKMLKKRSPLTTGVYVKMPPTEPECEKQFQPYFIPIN

B1: antibody A10 (L10H10) (antibody, V domains shown)
VH: QVQLVESGGGVVQPGRSLRLSCVASGFTLSSYGMHWVRQAPGKGLEWVAVIWYDGSNKHYADSVKGRFTISRDNSKNTLSLQMNSLRAEDTAVYYCARGGQLGPFDYWGQGTLVTVSS
VL: not shown
notes: also called aCTLA-4.22
By Kd is commonly meant the concentration at which binding is half-saturated. As usually defined, the koff is the rate constant with which the complex falls apart. High values mean fast dissociation, low ones slow dissociation. As usually defined, the kon is the rate constant with which the complex forms. Read a low kon as slow association. For the molecule B1, the Kd in [1] was found to be 22 nM; in experiment [2], 22 nM; in experiment [3], 3.1 nM; in [5], 3.1 nM; in [8], 22 nM. Moreover, the off-rate (koff) in [2] and in experiment [8] was 0.00051 s⁻¹ throughout. The on-rate constant (kon) in [2] and in experiment [8] was 23000 M⁻¹ s⁻¹ each time. Moreover, the binding result in [4] is “no binding (tested: 300 nM)”; in experiment [10], “no binding (tested: 10 µg/mL)”. Further, the “MFI of CTLA-4+ CHO cells” value in experiment [6] is 641. In [7], the “MFI of CD27+ CHO cells” value was found to be 15.2. Besides, the “Promega assay % inhibition” value in experiment [9] came to 24.5%. For the same molecule, the “Promega assay antagonist (EC50, ug/mL)” value in [9] turned out to be 0.26 µg/mL. For the same molecule, the “Cell-based blocking activity EC50” value in experiment [11] was 0.26 µg/mL. Further, the “Cell-based blocking activity max signal (RLU)” value in experiment [11] came to 134 RLU.

B2: antibody A8 (L8H8) (antibody, V domains shown)
VH: QVQLVESGGGVVQPGRSLRLSCAASGFTFSRYGMHWVRQAPGKGLEWVAVIWYDGRNKYYADSVKGRFTISRDNSKNTLYLQMNSLRAEDTALYSCARAGELGPFDYWGQGTLVTVSS
VL: EIVLTQSPGTLSLSPGERATLSCRASQSVSYLAWYQQKPGQAPRLLIYGASSRATGIPDRFSGSGSGTDFTLTISRLEPEDFAVYYCQQYGSSPWTFGQGTKVEIK
notes: also called aCTLA-4.1
For the molecule B2, the Kd in [1] stood at 4.6 nM; in experiment [2] it was 4.6 nM; in experiment [3], 1 nM; in experiment [5] it was 1 nM; in experiment [8], 4.6 nM. The off-rate (koff) in experiment [2] and in experiment [8] was 0.00039 s⁻¹ each time. The on-rate (kon) in experiment [2] and in experiment [8] was 85000 M⁻¹ s⁻¹ throughout. In addition, the binding result in experiment [4] is “no binding (tested: 300 nM)”; in experiment [10], “no binding (tested: 10 µg/mL)”. Besides, the “MFI of CTLA-4+ CHO cells” value in [6] was determined as 1010. Further, the “MFI of CD27+ CHO cells” value in [7] is 18.6. In addition, the “Promega assay % inhibition” value in experiment [9] stood at 54.7%. For the same molecule, the “Promega assay antagonist (EC50, ug/mL)” value in [9] worked out at 0.15 µg/mL. Also, the “Cell-based blocking activity EC50” value in experiment [11] was 0.1 µg/mL. Besides, the “Cell-based blocking activity max signal (RLU)” value in [11] turned out to be 349 RLU.

B3: antibody A9 (L9H9) (antibody, V domains shown)
VH: QVQLVESGGGVVQPGRSLRLSCAASGFTFSSHGMHWVRQAPGKGLEWVAVIWYDGSNKHYADSVKGRFTISRDNSKNTLYLQMNSLRAEDTAVYYCARGDILTGYYGYWGQGTLVTVSS
VL: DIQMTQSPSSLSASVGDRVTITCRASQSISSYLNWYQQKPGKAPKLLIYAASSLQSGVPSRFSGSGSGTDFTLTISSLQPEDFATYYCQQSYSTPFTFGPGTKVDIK
notes: also called aCTLA-4.24
B3: the Kd worked out at 6.8 nM in experiment [1]; 6.8 nM in [2]; 0.9 nM in [3]; 0.92 nM in [5]; 6.8 nM in [8]. The koff in experiment [2] and in experiment [8] was 0.00043 s⁻¹ throughout. The on-rate (kon) in experiment [2] and in experiment [8] was 63000 M⁻¹ s⁻¹ in each case. For the same molecule, the binding result in [4] was “no binding (tested: 300 nM)”; in experiment [10], “no binding (tested: 10 µg/mL)”. Further, the “MFI of CTLA-4+ CHO cells” value in experiment [6] came out at 934. Further, the “MFI of CD27+ CHO cells” value in experiment [7] was 26. Besides, the “Promega assay % inhibition” value in experiment [9] amounted to 60.8%. The “Promega assay antagonist (EC50, ug/mL)” value in [9] was 0.19 µg/mL. Further, in experiment [11], the “Cell-based blocking activity EC50” value was found to be 0.19 µg/mL. Also, the “Cell-based blocking activity max signal (RLU)” value in [11] stood at 333 RLU.

B4: antibody A3 (L3H3) (antibody, V domains shown)
VH: QVQLVESGGGVVQPGRSLRLSCIASGFTFSSYGMHWVRQAPGKGLEWVAVNWYDGSNKHYADSVKGRFTISRDNSKNTLYLQMNSLRAEDTAVYYCARGGVWGPYFDYWGQGTLVTVSS
VL: not shown
notes: also called aCTLA-4.2
For the molecule B4, the Kd is 1.5 nM in experiment [1]; 1.5 nM in [2]; 1.2 nM in experiment [3]; 1.2 nM in experiment [5]; 1.5 nM in experiment [8]. Besides, the off-rate constant (koff) in experiment [2] and in [8] was 0.00028 s⁻¹ each time. In addition, the kon in [2] and in experiment [8] was 190000 M⁻¹ s⁻¹ in each case. Further, the binding result is recorded as “no binding (tested: 300 nM)” in [4] and “no binding (tested: 10 µg/mL)” in experiment [10]. In experiment [6], the “MFI of CTLA-4+ CHO cells” value stood at 1050. Moreover, in [7], the “MFI of CD27+ CHO cells” value came to 18.2. The “Promega assay % inhibition” value in experiment [9] is 49.8%. The “Promega assay antagonist (EC50, ug/mL)” value in experiment [9] was determined as 0.18 µg/mL. In [11], the “Cell-based blocking activity EC50” value came to 0.18 µg/mL. The “Cell-based blocking activity max signal (RLU)” value in [11] came to 273 RLU.
